Target: human cathepsin B (Recombinant Human Procathepsin B, Novoprotein, converted into active form) (human, UniProt P07858 80-333)
Test: enzyme inhibition

B1: Stefin A-derived antibody Fab (Fab, V domains shown)
VH: not shown
VL: DIQMTQSPSSLSASVGDRVTITCRASQDVNVVAGTTAVAWYQQKPGKAPKLLIYGGSKSLPGQNEDLSGGFLYSGVPSRFSGSRSGTDFTLTISSLQPEDFATYYCQQHLGGPITTPPTFGQGTKLEIKR
B1 was tested. Which Ki did it give?
The Ki was 225 nM.
